Reference: the supplement of paper PMC12042874
± gives the uncertainty stated by the source.

Test: amyloid nucleation score (Sup35N fusion, yeast selection) (log enrichment); library NNK2; higher = more nucleation; inactive = no reads after selection
Procedure, shortened: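 The nucleation score is the DiMSum log enrichment of output over input reads, centred on the mode score of non-aggregating sequences. Only sequences with 100 or more input reads were scored, using Illumina sequencing of input and output plasmid inserts. Psi-negative yeast expressing Sup35N fused to peptides of 20 random codons were induced 24 hours with 100 μM copper sulfate and grown 7 days at 30°C on medium lacking adenine and uracil.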

Substance | amyloid nucleation score
ISGLETYLRSYWICIWSMWA | 3.02 ± 0.15
TSSFEARRRGWLTDEGVLFY | 0.784 ± 0.54
SWYVGLCMYVPWYERRANGH | 11.04 ± 0.067
ACRAICVPKGVGYWFCVTSE | 0.54 ± 0.51
NHLMSMFDCSDTQMSSSSIA | 0.308 ± 0.32
YRRRSKHAVNKGRMCA | 1.3 ± 0.28
TYGVLVNIGGWIDTFGWKLK | 6.662 ± 0.049
VCWTNSWVCNSGVLSGVGAA | 1.41 ± 0.18
WCTLFFQCRRPG | 5.554 ± 0.049
ATDADGRLISY | 1.31 ± 0.25
VRIFWTVTLFDCRLLRWLSN | 0.045 ± 0.38
SIGHNSSF | 0.117 ± 0.49
TGYLVWFG | 0.951 ± 0.3
WGLGCMSQSTLHGSLISSVR | -0.5 ± 0.44
RIMTPWIGRGRRAHIFLHLW | 1.06 ± 0.29
RSDCCRDQYT | -0.311 ± 1.1
HSWNV | inactive
MSLSLQKYFLWRPGRAPVVR | -0.03 ± 0.63
NWIDVLFKCKC | -0.156 ± 0.62
SRSYSNLWLGAHVLTRLRHD | -0.337 ± 1.1
GSNIEGY | -0.512 ± 0.46
GPRLEGWSPPDRAVLSGCSD | 0.656 ± 0.44
CISSKHISVGVTDNLVVV | 0.436 ± 0.8
RNYHIQYIAVRVLIPASA | 5 ± 0.068
YTRGTNGLWLYRWVMVRGSN | -0.649 ± 0.36

Substance | amyloid nucleation score
YLEFSPTSITWGAPLERYST | inactive
MRSYRLYLIPFHFLGWLINS | inactive
FEAVDWFKL | -0.603 ± 0.74
TSHSCGYLWCSLV | 0.211 ± 0.61
YFNFIPGANRHDVSHFYGSY | 0.299 ± 0.21
AVRVGGTGFRVRS | -0.121 ± 0.48
MFWRSYNWDFSCYCNCSRGR | 5.054 ± 0.033
CYSLSYLILVCR | 5.73 ± 0.041
LVEFSSRFQLGFTGSVNS | 1.21 ± 0.16
NRVFVVND | 1.4 ± 0.2
RMCLSVVNWSSRSHRSFHQP | 3.81 ± 0.051
DNMDFMMCKINSGLNLTLSS | -2.33 ± 0.62
YCGTVFHGSRRECGISVRGW | 1.19 ± 0.33
WLLNYYRGGVWLGLWTRKE | -1.3 ± 0.48
YMYPWGP | 0.693 ± 0.28
RCGASSCNRLGPPMLNNRAM | -1.6 ± 0.75
VAKYLHYMSWVWRFMAWSYV | -1.15 ± 1
HNGVRRHMSNVSKILHSYF | 0.02 ± 1
WLVMEATLAFIRYTRGSFSL | -0.432 ± 1.1
MFILGAHGKFGSTTMGVLAC | -1.64 ± 0.62
RIQSSFFHCC | 7.825 ± 0.036
FTNAPVLFVN | inactive
NCIFDMLLVLR | inactive
RVLGWCSNSWMVEMSNECSW | 1.13 ± 0.3
YGESVHTR | -0.446 ± 0.38

Substance | amyloid nucleation score
MLYYNESVINAVVYVKGRCW | -0.012 ± 1.1
GYDVERDNFDCVVTKDELFW | -0.427 ± 0.21
CQRTLQTGAYRDGLCIYGLS | 1.38 ± 0.41
AFELSVTLCSTEMLQHRCIG | -0.081 ± 1.1
LLCCMWFDRWLWTGLAWITV | 0.247 ± 0.24
VDWRNFIGLLNLTDCSDRYH | -0.744 ± 0.34
WVDNRWEVSLSWAGYTIF | inactive
STCKLWGVQWFPGGEDRNWK | -0.155 ± 0.42
GFDYLIFLNKHRLVMSWSFE | -0.675 ± 1.1
QMAINAGRRRRHAEYGLRNS | 0.684 ± 0.57
CNVSSWSFLPPS | inactive
MQLCYKYRTVVTSSLDPEYM | -0.066 ± 0.74
GSTVKSIVCDSVWS | 0.082 ± 0.65
CGVVSLCSGWSLMYDRGWWG | 10.2 ± 0.054
LKIQEPNRYW | -0.945 ± 0.76
CLFWLHQHMQYFHVMGLSPT | 2.21 ± 0.22
FAFVYSNHFGQMCYRNVCLS | inactive
RTFAKVLKSSYQRNLPSTDV | 0.267 ± 0.24
MTSENNWPNYTGLAPTPPAA | 1.32 ± 0.18
RGGSTPYYNWSAGDGWKKDK | 2.86 ± 0.065
FFRVQINEGDQGYQSQYF | inactive
MYVMTHNL | 0.776 ± 0.44
VNIRGTHVLVRVYSQGRNRA | 8.528 ± 0.062
AWANRMWWAR | 4.23 ± 0.074
ETLSQIMFYVKIIAYDCRNP | 2.66 ± 0.13

Substance | amyloid nucleation score
WYLYFFVFLLHMNRNLFLVL | -1.63 ± 0.55
VYMFCRGGTHEAYFFHTGLC | -0.256 ± 0.79
HWSADDNFSSLQRLFVYMGR | 4.583 ± 0.043
LCACIELSNKMLLTFNSNVK | -0.517 ± 0.32
DIYPRLLEDVFYPFVQPHLF | -0.505 ± 1.1
RLSENFLRWSDVTIQSRLFG | 2.49 ± 0.15
FIWTYSYRDVWVLRVAVWLQ | 0.283 ± 0.23
TIIKDIVIVDVFSSN | 1.53 ± 0.15
PFVTK | 0.259 ± 0.29
RDHLFCG | 0.654 ± 0.16
LNIQFGGSLHWKSGGVATEA | 0.103 ± 0.28
TMWYIGKITRPSLRAGSGFT | -1.16 ± 0.48
TNLRAPEHHSHYCSRLRLD | -0.267 ± 0.35
WAWGCWVHSESVAWSCMCKA | 0.476 ± 0.28
LFLRLVNQMVLLIKEWNVWG | 0.196 ± 0.3
FVYQCMCFNADLCFKFRLCS | 7.883 ± 0.065
ENQPVELSTTRDTRAGMSDT | inactive
VDLTIVHRGGGAGMGSNRVK | 0.176 ± 0.24
FWEKSSKVFW | 3.33 ± 0.13
CYVDFSYLVNKFYWGPRWMP | -0.049 ± 0.5
NCLEIQFWRLSSRYVGKFVM | -0.113 ± 0.32
MMWLSARMQR | 6.727 ± 0.049
TTSQFGLGGICPDNSTGLLA | -1.31 ± 1
SISRFSFIRNTVGRD | 0.637 ± 0.37
RNTNSANVKSCSMVRNRVWC | 0.604 ± 0.66

Substance | amyloid nucleation score
YTSGMFFMPMQALASETPHA | -0.924 ± 0.61
HSSEIL | -0.006 ± 0.65
FLIFTTLLYCMVDMHAGTTF | -1.77 ± 0.78
ASLSMSLFFALSVA | inactive
ESGFGMSSNWKPERNFW | inactive
DFVHVEIDPYQVGGGFQ | 8.764 ± 0.046
RKFFSIVRFCA | inactive
LYQMCIRLI | -0.657 ± 0.55
YYGLVSGGLQYVCMFGSFIY | inactive
RRSSD | 1.2 ± 0.3
SGYDFHVRMTCCIWH | 9.166 ± 0.04
ALEFNT | 4.14 ± 0.1
NYVYSTCYALDQCQFKYNVQ | 0.655 ± 0.26
GNLLKREFAIVFFSVYKQEA | -0.27 ± 0.76
LCSFAMKLVCNRVMAFDIES | 1.68 ± 0.19
FKAYHSGKWTYGHITQRGRI | inactive
YNKLRPGATCHLETWS | -0.614 ± 0.79
CYVVAREKSLIETGNFGKYG | -0.653 ± 0.79
SNLFGKLYVCFERDPRRKMM | 3.32 ± 0.12
GLVGPSI | -0.29 ± 0.48
YRSSHYYQQSIIVFVIMHRC | 2.11 ± 0.3
CNFVTILLGMN | 4.85 ± 0.055
DTYDSCMSSVMISFR | 0.343 ± 0.51
YNLESLNFMLCSLRTQGKFR | 0.149 ± 0.25
NLPIGLCSAGRFLGNNL | 0.123 ± 1

Substance | amyloid nucleation score
SWYILILGFRGKIIYPFRLG | -1.03 ± 0.76
FLVYWTMLVVYGYCVFGWIN | -1.3 ± 0.78
DSSYVSVHRFCNFGYLIFCF | 7.734 ± 0.064
LCGFTIPSNVSLGRR | 4 ± 0.11
IIILFQVQCHVVRLSRVHKC | -0.658 ± 0.49
YNRRLYRIACVGIVNVNGVG | 5.902 ± 0.042
SFIPRLYLV | -0.016 ± 0.53
YSFELGDFRMEKLIRDMVKC | -0.932 ± 0.42
RVMRCGCIDVQAILNVIVSQ | 9.316 ± 0.039
NSLRCSLIWMGQLPLSGTHV | inactive
FFLYFVFCF | 2.67 ± 0.085
IKVYESYVRT | -0.812 ± 0.39
RVYIFTCYGSSV | 7.997 ± 0.074
GIFIFNAFEEMSVGKDSELL | -0.529 ± 0.27
FCALPWGFFGYMGNLNLYSD | 2.62 ± 0.083
GWRLTRDRVG | 1.31 ± 0.18
MIEKVQFQCLVIICRNGVV | 6.565 ± 0.052
ESYLFAWDNGMFYIANDLEF | 0.494 ± 0.8
LFLGYMSLCVVYVLAFGRFE | 3.79 ± 0.043
HVHGMYSGWCYDKTGQEKGM | 0.624 ± 0.34
HNPLS | inactive
CVVQHSRSFVRPLLSTLQAC | 0.453 ± 0.23
STYSIIYV | 0.831 ± 0.17
TIGFLFLVNWPSWNFLEEVF | inactive
RRISLLFTYYVRQSLSCLIV | 4.94 ± 0.086

Substance | amyloid nucleation score
ESLKINASSEQSRLVTRDTQ | -0.191 ± 0.61
RGINVGGWLSLGFTGAVHSL | 3.4 ± 0.12
VSNLTQVAEVRQSNGGVFCG | 0.189 ± 0.39
LRGSFNLVSYFTQLRSCDYF | -1.27 ± 0.78
GFGNFVINDWSLR | -1.56 ± 1.1
DIFCLRPYKLPGYTFYYFVY | inactive
LTLIVNPLVNSPPGPQASLT | 0.735 ± 0.23
MQIIGWILWGVLQAELHYRS | -1.01 ± 0.53
HRFIILNIVAFE | 0.59 ± 0.28
GFVGF | 2.68 ± 0.17
SILGMG | -0.555 ± 0.28
YSTIKIHLPGLVVRNQSLVR | inactive
AVHDGFDRNMAIKGTGGRWW | 3.79 ± 0.098
PTGNQLKKCVDKCGGRSGGE | inactive
VGGFRGRVTSHSPMRMCIQR | -0.114 ± 1
SEKGKEYSSVDMGQNGNTNM | -0.829 ± 0.63
VRWAKNNRMTLYLKITLRAK | -0.951 ± 0.37
VLYHFEISA | -0.011 ± 0.54
AVVGDMGIC | -0.511 ± 0.63
FSSILWRFSRLVVRSLVPKS | 0.175 ± 0.27
